Measurements published in publication PMC8828441.

Target: ADDomer-SpyTag (human adenovirus type 3)
Assay: covalent SpyTag/SpyCatcher adduct on SDS-PAGE

SpyCatcher
stoichiometry N (copies per particle): 60
